Experimental data taken from US7851591 (Dana-Farber, dated 2010).

Tests used:
human HLA-A*0201 [1] = biological target: T1, human HLA-A*0201 (human); assay: T2 cell assay, 50 µg/ml peptide plus 5 µg/ml b2m for 18 h, flow cytometry with mAb BB7.2; (MFI with peptide - MFI without)/MFI without
T1 construct: In the T2 assay the MHC stands on the cell surface; also called HLA-A2

human HLA-A*0201 [2] = biological target: T1, human HLA-A*0201; assay: T2 cell assay: peptide plus beta2-microglobulin pulsed 18 h, HLA-A*0201 surface expression by flow cytometry with mAb BB7.2

Binder	Fluorescence Index (human HLA-A*0201 [1])	binding result (human HLA-A*0201 [2])
RLVDDFLLV (Only the start position aa865 is printed; the end of the range follows from the length of the nonapeptide) [hTERT peptide R865 (RLVDDFLLV)]	2.2	–
ILAKFLHWL (Only the start position aa540 is printed; the end of the range follows from the length of the nonapeptide; also called hTERT I540) [hTERT peptide I540 (ILAKFLHWL)]	3.1	–
AHTKDGFNF (Only the start position aa98 is printed) [A98-Id idiotype peptide (AHTKDGFNF), negative control]	0	no binding (tested: 50 µg/ml)
HFLLWKLIA [I540-S, scrambled hTERT I540 peptide (HFLLWKLIA), negative control]	0.2	no binding (tested: 50 µg/ml)
ELLRSFFYV (Only the start position aa555 is printed; the end of the range follows from the length of the nonapeptide) [hTERT peptide E555 (ELLRSFFYV)]	2.2	–
